# In US20080064631A1 (published 2008):
# T1: proteinase 3 and neutrophil elastase (PR1) peptide on HLA-A*02:01 (human)
# T1 peptide: VLQELNVTV
# Molecular target: T1, proteinase 3 and neutrophil elastase …
# Test: multimer staining
# Procedure: Briefly, from PBMC that were derived from a healthy HLA-A2+ donor, the inventor elicited bulk PR1-CTL cell lines after 4 to 6 weeks of weekly stimulations with the PR1 peptide+low dose IL-2 and IL-7 in vitro, as outlined in FIG. 1. These CTL were subsequently placed into limiting dilution culture and after an additional 14 to 20 days. The cells were expanded with anti-CD3/anti-CD28 beads+IL-2+feeder cells+IL-15 to sufficient numbers and were then tested. The PR1-CTLs were stained with PR1-CTL tetramer to confirm specificity (FIG. 2). Unique cDNA sequences from the CDR3-α and CDR3-β regions from two different PR1-specific CTL clones that were derived from an HLA-A2+ healthy individual were obtained. The inventor reported that one PR1-CTL clone (F4) bears a relatively high avidity TCR for the PR1/HLA-A2 ligand, while the other CTL clone (B12) bears a relatively low avidity TCR. These conclusions are supported with PR1/HLA-A2 tetramer binding data and with cytotoxicity assays that show F4 to have a higher tetramer staining fluorescence intensity and a lower threshold of activation than the B12 clone, respectively. TCR-αβ CDR3 nucleic acid sequence data is provided showing clonality at the molecular level.
row,binding result,Binder
1,recognises,"High avidity PR1-CTL clone F4 TCR (TCR, V domains shown) Valpha: GQNIDQPTEMTATEGAIVQINCTYQTSGFNGLFWYQQHAGEAPTFLSYNVLDGLEEKGRFSSFLSRSKGYSYLLLKELQMKDSASYLCAVSRDSGNTPLVFGKGTRLSVIA Vbeta: DSGVTQTPKHLITATGQRVTLRCSPRSGDLSVYWYQQSLDQGLQFLIQYYNGEERAKGNILERFSAQQFPDLHSELNLSSLELGDSALYFCASSPSGTGNIQYFGAGTRLSVL"
2,recognises,"Low avidity PR1-CTL clone B12 TCR (TCR, V domains shown) Valpha: AQSVTQPDIHITVSEGASLELRCNYSYGATPYLFWYVQSPGQGLQLLLKYFSGDTLVQGIKGFEAEFKRSQSSFNLRKPSVHWSDAAEYFCAVGGGARLMFGDGTQLVVKP Vbeta: KAGVTQTPRYLIKTRGQQVTLSCSPISGHRSVSWYQQTPGQGLQFLSEYFSETQRNKGNFPGRFSGRQFSNPRSEMNVSTLELGDSALYLCASSGEAFYEQYFGPGTRLTVT"
